Results reported in US20140206011A1.

Legend:
[1] = biological target: FadA on wild-type Fusobacterium nucleatum 12230 (Fusobacterium nucleatum); test: cell-based or functional assay
[2] = biological target: E-cadherin (human) (UniProt P12830); test: cell-based or functional assay
UniProt P12830, sequence (P12830 155-882): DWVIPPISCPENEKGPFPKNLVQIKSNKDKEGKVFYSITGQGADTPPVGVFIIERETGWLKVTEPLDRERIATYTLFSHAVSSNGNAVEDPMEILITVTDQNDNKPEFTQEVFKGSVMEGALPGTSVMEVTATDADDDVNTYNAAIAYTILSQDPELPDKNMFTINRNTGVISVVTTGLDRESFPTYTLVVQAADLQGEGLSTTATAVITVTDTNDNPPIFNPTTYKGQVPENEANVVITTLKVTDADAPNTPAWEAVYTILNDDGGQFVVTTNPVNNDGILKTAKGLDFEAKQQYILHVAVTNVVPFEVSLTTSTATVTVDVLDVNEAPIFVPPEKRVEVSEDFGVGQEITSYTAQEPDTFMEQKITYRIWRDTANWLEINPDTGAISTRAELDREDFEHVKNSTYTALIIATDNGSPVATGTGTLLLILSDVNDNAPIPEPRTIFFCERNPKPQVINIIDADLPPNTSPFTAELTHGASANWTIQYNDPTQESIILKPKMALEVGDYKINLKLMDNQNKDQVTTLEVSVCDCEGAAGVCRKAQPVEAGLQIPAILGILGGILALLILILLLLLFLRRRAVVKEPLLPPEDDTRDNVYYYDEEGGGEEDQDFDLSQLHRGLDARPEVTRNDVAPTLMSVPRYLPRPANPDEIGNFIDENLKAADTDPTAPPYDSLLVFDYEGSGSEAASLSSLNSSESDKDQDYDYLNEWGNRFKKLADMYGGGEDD

Substance: GST-EC5 fusion protein (from UniProt P12830 594-697)
- inhibition of Fn attachment and invasion of HCT116 [1]: 0.1 µM

Substance: FadAc
- HCT116 cell growth (cell proliferation assay) [2]: 1 mg/mL
- HCT116 xenograft tumor growth in nude mice [2]: 20%

Substance: FadA on wild-type Fusobacterium nucleatum 12230
- attachment level of Fn to HCT116 (percent bacteria recovered relative to inoculum), FIG. 3C without inhibition [2]: 4.4%
- attachment level of Fn to HCT116 without inhibition, FIG. 4B [2]: 6.3%
- attachment level of Fn to HCT116 without inhibition, FIG. 4C [2]: 5.9%
- invasion level of Fn into HCT116 (percent bacteria recovered relative to inoculum), FIG. 3C without inhibition [2]: 1.3%
- invasion level of Fn into HCT116 without inhibition, FIG. 4B [2]: 1.6%
- invasion level of Fn into HCT116 without inhibition, FIG. 4C [2]: 1.4%
